{
  "source": "patent US20150337046A1",
  "about": "(Kyowa Kirin, published 2015)",
  "key": {"[1]": {"molecular_target": "T1, hLIGHT SNP variant 214E-32S, cell surface-expressed on EL4 cells (human, UniProt O43557 1-240)", "assay": "flow cytometry at 10 µg/ml antibody on EL4 SNP cell lines", "excerpt": "(§1) Binding was detected with goat anti-human IgG-APC secondary antibody. Isotype control human IgG was used as a negative control."}, "[2]": {"molecular_target": "T2, human LIGHT (hLIGHT), cell surface-expressed, full length (human, UniProt O43557 1-240)", "T2 construct": "also called native hLIGHT on the cell surface; EL4-hLIGHT", "assay": "flow cytometry on hLIGHT-transfected cells"}, "[3]": {"molecular_target": "T3, hLIGHT SNP variant 214K-32S, cell surface-expressed on EL4 cells (human, UniProt O43557 1-240)", "assay": "flow cytometry at one antibody concentration on EL4 SNP 214K cell line", "excerpt": "as §1"}, "[4]": {"molecular_target": "T4, soluble FLAG-tagged recombinant hLIGHT (native, untreated) (human, UniProt O43557 66-240)", "T4 construct": "N-terminal FLAG tag followed by hLIGHT extracellular region Gly66 to Val240; also called soluble hLIGHT; FLAG-hLIGHT", "T4 chain": "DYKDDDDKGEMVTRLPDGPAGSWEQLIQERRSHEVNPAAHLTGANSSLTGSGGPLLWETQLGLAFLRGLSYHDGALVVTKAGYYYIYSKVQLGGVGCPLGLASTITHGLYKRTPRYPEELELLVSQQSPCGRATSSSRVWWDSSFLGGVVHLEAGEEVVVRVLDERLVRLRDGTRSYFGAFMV", "assay": "dot blot: serial dilutions of native soluble hLIGHT on PVDF, probed with 5 µg/ml antibody, chemiluminescence", "description": "Each blot was probed with 5 μg/ml of each primary antibody. […] The blots were washed 3× in 1×TBST followed by super SA-HRP (Amersham Biosciences, Piscataway, N.J.). Chemiluminescence was used for detection using the ECL detection kit (Amersham Biosciences, Piscataway, N.J.) and signal was visualized by exposure to X-OMAT AR imaging film (Kodak, Rochester, N.Y.). […] An anti-M2 (irrelevant antigen) antibody was used as a negative control.\nFive micrograms of soluble human LIGHT was either boiled in 2×SDS sample buffer (denatured) or untreated (native), and then both were serially diluted in 6× increments. 5 μl of each hLIGHT dilution was spotted simultaneously onto hydrated 0.2 μm PVDF membranes (Invitrogen, Carlsbad, Calif.) using an 8 multi-channel pipette. […] Each blot was probed with 5 μg/ml of each primary antibody (see below). […] The blots were washed 3×in 1×TBST followed by super SA-HRP (Amersham Biosciences, Piscataway, N.J.). Chemiluminescence was used for detection using the ECL detection kit (Amersham Biosciences, Piscataway, N.J.) and signal was visualized by exposure to X-OMAT AR imaging film (Kodak, Rochester, N.Y.)"}, "[5]": {"molecular_target": "T1, hLIGHT SNP variant 214E-32S, cell …", "assay": "flow cytometry dose titration on EL4 cells expressing the SNP variant", "description": "(§2) For FIG. 25A-25D, the geometric mean fluorescence intensity (MFI) was determined and non-linear regression analysis applied."}, "[6]": {"molecular_target": "T5, hLIGHT SNP variant 214E-32L, cell surface-expressed on EL4 cells (human, UniProt O43557 1-240)", "T5 construct": "also called cytoplasmic SNP", "T5 chain": "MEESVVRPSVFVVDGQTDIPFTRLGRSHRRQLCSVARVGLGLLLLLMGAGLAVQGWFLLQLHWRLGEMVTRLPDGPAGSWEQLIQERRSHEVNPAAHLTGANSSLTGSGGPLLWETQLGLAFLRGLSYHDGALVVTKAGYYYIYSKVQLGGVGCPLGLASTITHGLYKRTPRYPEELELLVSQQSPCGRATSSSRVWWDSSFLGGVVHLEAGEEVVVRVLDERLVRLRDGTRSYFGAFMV", "assay": "flow cytometry dose titration on EL4 cells expressing the SNP variant", "description": "as §2"}, "[7]": {"molecular_target": "T2, human LIGHT (hLIGHT), cell …", "assay": "flow cytometry on HEK 293-hLIGHT cells"}, "[8]": {"molecular_target": "T3, hLIGHT SNP variant 214K-32S, cell …", "assay": "flow cytometry dose titration on EL4 cells expressing 214K-32S", "description": "as §2"}},
  "data": [
    {"binder": "E63 antibody (produced by hybridoma 124 E63, ATCC Accession No. PTA-7818) (antibody, V domains shown, a recombinant IgG1 version (E63G1) was also made) VH: QVQLQESGPGLVKPSETLSLTCIVSGGSVSSGGYYWSWIRQPPGKGLEWIGYIYYSGSTNYNPSLKSRVTISVDTSKNQFSLKLSSVTAADTAVYYCARWITMFRGVGFDPWGQGTLVTVSS VL: EIVLTQSPDFQSVTPKEKVTITCRASQSIGSSLHWYQQKPDQSPKLLIKYASQSFSGVPSRFSGSGSGTDFTLTINSLEAEDAAAYYCHQSSSLPLTFGGGTKVEIK", "values": [
      {"measurement": "binding result", "setting": "[1]", "value": "binds"},
      {"measurement": "binding result", "setting": "[2]", "value": "binds"},
      {"measurement": "binding result", "setting": "[3]", "value": "no binding (tested: 10 µg/ml)"},
      {"measurement": "lowest limit of detection", "setting": "[4]", "value": 3.9, "unit": "ng"}
    ]},
    {"binder": "E1 antibody (produced by hybridoma 124 E1, ATCC Accession No. PTA-7729) (antibody, V domains shown, Fully human IgG1 purified from hybridoma culture) VH: EVQLVESGGGLVQPGGSLRLSCAASGFTFSRFNMNWVRQAPGKGLEWVSYISSSSYTIYYADSVKGRFTISRDNAKNSLDLQMNSLRDEDTAVYYCARSIAAAFDYWGQGALVTVSS VL: not shown", "values": [
      {"measurement": "lowest limit of detection", "setting": "[4]", "value": 23, "unit": "ng"}
    ]},
    {"binder": "F23 antibody (produced by hybridoma 124 F23, ATCC Accession No. PTA-7728) (antibody, V domains shown, Residue ranges without leader are those stated in claim 28 (CLM-00028)) VH: QVQLQQWGAGLLKPSETLSLTCAVYGGSFSGYYWNWIRQPPGKGLEWIGEINQYNPSLKSRVTISVDTSKNQFSLKLSSVTAADTAVYYCAREIATADKGYYGLDVWGQGTTVTVSS VL: AIQLTQSPSSLSASVGDRVTITCRASQGISSALAWYQQKPGKAPKLLIYDASSLESGVPSRFSGSGSGTDFTLTISSLQPEDFATYYCQQFNSYPLTFGGGTKVEIK", "values": [
      {"measurement": "lowest limit of detection", "setting": "[4]", "value": 23, "unit": "ng"}
    ]},
    {"binder": "recombinant single kappa chain antibody of E1 heavy chain paired with Elkappa(B) (antibody, V domains shown, also called E1kappa(B); 124Elkappa(B)) VH: EVQLVESGGGLVQPGGSLRLSCAASGFTFSRFNMNWVRQAPGKGLEWVSYISSSSYTIYYADSVKGRFTISRDNAKNSLDLQMNSLRDEDTAVYYCARSIAAAFDYWGQGALVTVSS VL: not shown", "values": [
      {"measurement": "binding result", "setting": "[5]", "value": "binds"},
      {"measurement": "binding result", "setting": "[6]", "value": "binds"},
      {"measurement": "binding result", "setting": "[7]", "value": "binds"},
      {"measurement": "binding result", "setting": "[8]", "value": "no binding"}
    ]}
  ]
}
